Reference: patent US20210246166A1 (Bayer, published 2021)
Numbered stars: 1 amine (or outer) side, 2 acyl side, 3 side chain; on linkers, the order of the positions; unused ones are H or OH. Bridge positions count the residues as written; N and C are the ends. Square brackets hold non-standard residues; d marks the D form. Ends that are not written are not given here. X17 = 2‑((1S,2S)-1-(Amino)-2-methylbutyl)‑1,3‑oxazole‑4‑carboxylic acid, CC[C@H](C)[C@H](N[*:1])c1nc(C(=O)[*:2])co1; PEG9(31 atoms) = 1-amino-3,6,9,12,15,18,21,24,27-nonaoxatriacontan-30-oic acid; Pro(4-spirocPr) = O=C(O)[C@@H]1CC2(CC2)CN1; Oic = O=C(O)[C@@H]1C[C@@H]2CCCC[C@@H]2N1; NMeI = CC[C@H](C)[C@H](NC)C(=O)O; tBuAla = CC(C)(C)C[C@H](N)C(=O)O; PEG4 = NCCOCCOCCOCCOCCC(=O)O; Pen = CC(C)(S)[C@H](N)C(=O)O; NMeC = CN[C@@H](CS)C(=O)O; NMeA = CN[C@@H](C)C(=O)O; Abu = CC[C@H](N)C(=O)O; Sar = CNCC(=O)O

T1: recombinant human MASP1 active protease (amino acids 297-699, C-terminal His Tag) (human, UniProt P48740 297-699)
T1 sequence: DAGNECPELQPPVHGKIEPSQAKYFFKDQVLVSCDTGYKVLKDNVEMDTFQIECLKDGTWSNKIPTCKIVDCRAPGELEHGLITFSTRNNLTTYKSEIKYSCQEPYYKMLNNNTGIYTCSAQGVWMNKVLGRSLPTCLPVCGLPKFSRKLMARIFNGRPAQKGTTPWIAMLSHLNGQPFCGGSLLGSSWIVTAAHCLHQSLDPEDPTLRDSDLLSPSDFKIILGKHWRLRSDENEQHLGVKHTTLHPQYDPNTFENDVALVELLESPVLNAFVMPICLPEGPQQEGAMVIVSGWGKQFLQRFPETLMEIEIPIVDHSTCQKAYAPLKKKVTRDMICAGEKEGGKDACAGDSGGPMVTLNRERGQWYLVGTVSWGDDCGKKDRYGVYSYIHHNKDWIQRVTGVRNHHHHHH


Tests used:
[1] = molecular target: recombinant human MASP2 active protease (amino acids 297-686, C-terminal His Tag) (human, UniProt O00187 297-686); assay: cell-based or functional assay
Sequence of recombinant human MASP2 active protease (amino acids 297-686, C-terminal His Tag) (O00187 other isoform, or with tags, fused parts or gaps limits assumed): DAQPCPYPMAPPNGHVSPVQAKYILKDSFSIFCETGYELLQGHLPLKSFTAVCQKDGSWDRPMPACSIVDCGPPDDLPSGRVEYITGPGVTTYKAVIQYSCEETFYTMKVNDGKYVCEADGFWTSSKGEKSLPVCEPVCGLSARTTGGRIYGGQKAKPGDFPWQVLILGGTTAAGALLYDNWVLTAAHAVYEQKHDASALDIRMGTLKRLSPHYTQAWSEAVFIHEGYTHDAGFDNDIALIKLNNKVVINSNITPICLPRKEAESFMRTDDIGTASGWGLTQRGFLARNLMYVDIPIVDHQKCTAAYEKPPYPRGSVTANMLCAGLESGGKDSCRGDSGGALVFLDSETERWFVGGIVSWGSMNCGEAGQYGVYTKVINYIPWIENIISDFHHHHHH

[2] = molecular target: T1, recombinant human MASP1 active protease …; assay: cell-based or functional assay

Row | Binder | human MASP2 IC50 [1] [nM] | human MASP1 IC50 [2] [nM]
1 | RICSRS[tBuAla]PPI[NMeC]IPD-NH2 (disulfide 3-11; N-terminus assumed; SMILES CC[C@H](C)[C@H](NC(=O)[C@@H](N)CCCNC(=N)N)C(=O)N[C@H]1CSSC[C@@H](C(=O)N[C@H](C(=O)N2CCC[C@H]2C(=O)N[C@@H](CC(=O)O)C(N)=O)[C@@H](C)CC)N(C)C(=O)[C@H]([C@@H](C)CC)NC(=O)[C@@H]2CCCN2C(=O)[C@@H]2CCCN2C(=O)[C@H](CC(C)(C)C)NC(=O)[C@H](CO)NC(=O)[C@H](CCCNC(=N)N)NC(=O)[C@H](CO)NC1=O) [RIC+SRS-((tBu)A)-PPI-((N-Me)C)+IPD-NH2] | 100 | 1.36
2 | TICSRS[tBuAla]PPI[Pen]IPD-OH (disulfide 3-11; N-terminus assumed; SMILES CC[C@H](C)[C@H](NC(=O)[C@@H](N)[C@@H](C)O)C(=O)N[C@H]1CSSC(C)(C)[C@@H](C(=O)N[C@H](C(=O)N2CCC[C@H]2C(=O)N[C@@H](CC(=O)O)C(=O)O)[C@@H](C)CC)NC(=O)[C@H]([C@@H](C)CC)NC(=O)[C@@H]2CCCN2C(=O)[C@@H]2CCCN2C(=O)[C@H](CC(C)(C)C)NC(=O)[C@H](CO)NC(=O)[C@H](CCCNC(=N)N)NC(=O)[C@H](CO)NC1=O) [TIC+SRS-((tBu)A)-PPI-(Pen)+IPD-OH] | 56 | 3.7
3 | AICSRS[tBuAla]PPI[Pen]IP[dE]-NH2 (disulfide 3-11; N-terminus assumed; SMILES CC[C@H](C)[C@H](NC(=O)[C@H](C)N)C(=O)N[C@H]1CSSC(C)(C)[C@@H](C(=O)N[C@H](C(=O)N2CCC[C@H]2C(=O)N[C@H](CCC(=O)O)C(N)=O)[C@@H](C)CC)NC(=O)[C@H]([C@@H](C)CC)NC(=O)[C@@H]2CCCN2C(=O)[C@@H]2CCCN2C(=O)[C@H](CC(C)(C)C)NC(=O)[C@H](CO)NC(=O)[C@H](CCCNC(=N)N)NC(=O)[C@H](CO)NC1=O) [AIC+SRS-((tBu)A)-PPI-(Pen)+IPe-NH2] | 62 | 1.4
4 | AICSRS[tBuAla]P[Oic]I[Pen]IPD-OH (disulfide 3-11; N-terminus assumed; SMILES CC[C@H](C)[C@H](NC(=O)[C@H](C)N)C(=O)N[C@H]1CSSC(C)(C)[C@@H](C(=O)N[C@H](C(=O)N2CCC[C@H]2C(=O)N[C@@H](CC(=O)O)C(=O)O)[C@@H](C)CC)NC(=O)[C@H]([C@@H](C)CC)NC(=O)[C@@H]2C[C@@H]3CCCC[C@@H]3N2C(=O)[C@@H]2CCCN2C(=O)[C@H](CC(C)(C)C)NC(=O)[C@H](CO)NC(=O)[C@H](CCCNC(=N)N)NC(=O)[C@H](CO)NC1=O) [AIC+SRS-((tBu)A)-P-(Oic)-I-(Pen)+IPD-OH] | 62 | 1.3
5 | AICSRSLP[Oic]ICIPD-OH (disulfide 3-11; N-terminus assumed; SMILES CC[C@H](C)[C@H](NC(=O)[C@H](C)N)C(=O)N[C@H]1CSSC[C@@H](C(=O)N[C@H](C(=O)N2CCC[C@H]2C(=O)N[C@@H](CC(=O)O)C(=O)O)[C@@H](C)CC)NC(=O)[C@H]([C@@H](C)CC)NC(=O)[C@@H]2C[C@@H]3CCCC[C@@H]3N2C(=O)[C@@H]2CCCN2C(=O)[C@H](CC(C)C)NC(=O)[C@H](CO)NC(=O)[C@H](CCCNC(=N)N)NC(=O)[C@H](CO)NC1=O) [AIC+SRSLP-(Oic)-IC+IPD-OH] | 316 | 4.65
6 | [NMeA]ICSRS[tBuAla]P[Oic]I[Pen]IP-NH2 (disulfide 3-11; N-terminus assumed; SMILES CC[C@H](C)[C@H](NC(=O)[C@H](C)NC)C(=O)N[C@H]1CSSC(C)(C)[C@@H](C(=O)N[C@H](C(=O)N2CCC[C@H]2C(N)=O)[C@@H](C)CC)NC(=O)[C@H]([C@@H](C)CC)NC(=O)[C@@H]2C[C@@H]3CCCC[C@@H]3N2C(=O)[C@@H]2CCCN2C(=O)[C@H](CC(C)(C)C)NC(=O)[C@H](CO)NC(=O)[C@H](CCCNC(=N)N)NC(=O)[C@H](CO)NC1=O) [((N-Me)A)-IC+SRS-((tBu)A)-P-(Oic)-I-(Pen)+IP-NH2] | 40 | 1.4
7 | A[Abu]CSRS[tBuAla]PPI[Pen]IPD-NH2 (disulfide 3-11; N-terminus assumed; SMILES CC[C@H](NC(=O)[C@H](C)N)C(=O)N[C@H]1CSSC(C)(C)[C@@H](C(=O)N[C@H](C(=O)N2CCC[C@H]2C(=O)N[C@@H](CC(=O)O)C(N)=O)[C@@H](C)CC)NC(=O)[C@H]([C@@H](C)CC)NC(=O)[C@@H]2CCCN2C(=O)[C@@H]2CCCN2C(=O)[C@H](CC(C)(C)C)NC(=O)[C@H](CO)NC(=O)[C@H](CCCNC(=N)N)NC(=O)[C@H](CO)NC1=O) [A-(Abu)-C+SRS-((tBu)A)-PPI-(Pen)+IPD-NH2] | 68 | 3.7
8 | [NMeA]ICSRSLP[Oic]I[Pen]I-NH2 (disulfide 3-11; N-terminus assumed; SMILES CC[C@H](C)[C@H](NC(=O)[C@H]1NC(=O)[C@H]([C@@H](C)CC)NC(=O)[C@@H]2C[C@@H]3CCCC[C@@H]3N2C(=O)[C@@H]2CCCN2C(=O)[C@H](CC(C)C)NC(=O)[C@H](CO)NC(=O)[C@H](CCCNC(=N)N)NC(=O)[C@H](CO)NC(=O)[C@@H](NC(=O)[C@@H](NC(=O)[C@H](C)NC)[C@@H](C)CC)CSSC1(C)C)C(N)=O) [((N-Me)A)-IC+SRSLP-(Oic)-I-(Pen)+I-NH2] | 195 | 3.75
9 | AICSRS[tBuAla]PPI[Pen]IP[dN]-NH2 (disulfide 3-11; N-terminus assumed; SMILES CC[C@H](C)[C@H](NC(=O)[C@H](C)N)C(=O)N[C@H]1CSSC(C)(C)[C@@H](C(=O)N[C@H](C(=O)N2CCC[C@H]2C(=O)N[C@H](CC(N)=O)C(N)=O)[C@@H](C)CC)NC(=O)[C@H]([C@@H](C)CC)NC(=O)[C@@H]2CCCN2C(=O)[C@@H]2CCCN2C(=O)[C@H](CC(C)(C)C)NC(=O)[C@H](CO)NC(=O)[C@H](CCCNC(=N)N)NC(=O)[C@H](CO)NC1=O) [AIC+SRS-((tBu)A)-PPI-(Pen)+IPn-NH2] | 53 | 1.4
10 | [Sar]ICSRS[tBuAla]PPI[Pen]IP[PEG4]-NH2 (disulfide 3-11; N-terminus assumed; SMILES CC[C@H](C)[C@H](NC(=O)CNC)C(=O)N[C@H]1CSSC(C)(C)[C@@H](C(=O)N[C@H](C(=O)N2CCC[C@H]2C(=O)NCCOCCOCCOCCOCCC(N)=O)[C@@H](C)CC)NC(=O)[C@H]([C@@H](C)CC)NC(=O)[C@@H]2CCCN2C(=O)[C@@H]2CCCN2C(=O)[C@H](CC(C)(C)C)NC(=O)[C@H](CO)NC(=O)[C@H](CCCNC(=N)N)NC(=O)[C@H](CO)NC1=O) [((N-Me)G)-IC+SRS-((tBu)A)-PPI-(Pen)+IP-(PEG3(16atoms))-NH2] | 28 | 1.3
11 | [2‑(Pyrrolidine)acetyl]ICSRS[tBuAla]PPI[Pen]IPD-NH2 (disulfide 3-11) [(2-(Pyrrolidine)acetyl)-IC+SRS-((tBu)A)-PPI-(Pen)+IPD-NH2] | 87 | 1.3
12 | [Sar][NMeI]CSRS[tBuAla]PPI[Pen]IP-NH2 (disulfide 3-11; N-terminus assumed; SMILES CC[C@H](C)[C@@H]1NC(=O)[C@@H]2CCCN2C(=O)[C@@H]2CCCN2C(=O)[C@H](CC(C)(C)C)NC(=O)[C@H](CO)NC(=O)[C@H](CCCNC(=N)N)NC(=O)[C@H](CO)NC(=O)[C@@H](NC(=O)[C@H]([C@@H](C)CC)N(C)C(=O)CNC)CSSC(C)(C)[C@@H](C(=O)N[C@H](C(=O)N2CCC[C@H]2C(N)=O)[C@@H](C)CC)NC1=O) [((N-Me)G)-((N-Me)I)-C+SRS-((tBu)A)-PPI-(Pen)+IP-NH2] | 590 | 3.7
13 | AICSRSLP[Pro(4-spirocPr)]I[Pen]IPD-NH2 (disulfide 3-11; N-terminus assumed; SMILES CC[C@H](C)[C@H](NC(=O)[C@H](C)N)C(=O)N[C@H]1CSSC(C)(C)[C@@H](C(=O)N[C@H](C(=O)N2CCC[C@H]2C(=O)N[C@@H](CC(=O)O)C(N)=O)[C@@H](C)CC)NC(=O)[C@H]([C@@H](C)CC)NC(=O)[C@@H]2CC3(CC3)CN2C(=O)[C@@H]2CCCN2C(=O)[C@H](CC(C)C)NC(=O)[C@H](CO)NC(=O)[C@H](CCCNC(=N)N)NC(=O)[C@H](CO)NC1=O) [AIC+SRSLP-((6S)-5-Azaspiro[2.4]heptane-6-carboxylic acid)-I-(Pen)+IPD-NH2] | 18 | 1.33
14 | AICSRS[tBuAla]PPI[NMeC][X17]D-NH2 (disulfide 3-11; N-terminus assumed; SMILES CC[C@H](C)[C@H](NC(=O)[C@H](C)N)C(=O)N[C@H]1CSSC[C@@H](C(=O)N[C@H](c2nc(C(=O)N[C@@H](CC(=O)O)C(N)=O)co2)[C@@H](C)CC)N(C)C(=O)[C@H]([C@@H](C)CC)NC(=O)[C@@H]2CCCN2C(=O)[C@@H]2CCCN2C(=O)[C@H](CC(C)(C)C)NC(=O)[C@H](CO)NC(=O)[C@H](CCCNC(=N)N)NC(=O)[C@H](CO)NC1=O) | 720 | 1.4
15 | [Sar]ICSRSLP[Oic]I[Pen]IP[PEG9(31 atoms)]-NH2 (disulfide 3-11) [((N-Me)G)-IC+SRSLP-(Oic)-I-(Pen)+IP-(PEG9(31 atoms))-NH2] | 100 | 3.7
